Our source for the Kd and percent remaining in supernatant (not pelleted with F-actin) values is article PMC7418779.

This assay concerns the target human platelet actin (non-muscle actin), used as monomeric ATP-G-actin or as pre-formed F-actin (human) (UniProt P60709). The experiment in a line: co-sedimentation.

“FLAG-tagged SHTN1L, full length, purified (from UniProt Q8K2Q9 1-631) (natural protein)” registered a dissociation constant (Kd) of 0.164 µM and a percent remaining in supernatant (not pelleted with F-actin) of 50%.

For the substance “FLAG-tagged SHTN1L lacking CCD-I (1L-ΔCCD-I), purified (domain or fragment)”, the Kd amounted to 0.0219 µM.
